Patent US20040018558A1 (published 2004)
Where no end group is shown, it is not given here.

How the values were obtained:
[1] = molecular target: T1, human thrombin receptor (PAR1) (human, UniProt P25116 42-425); test: cell-based or functional assay
T1 sequence (looked up): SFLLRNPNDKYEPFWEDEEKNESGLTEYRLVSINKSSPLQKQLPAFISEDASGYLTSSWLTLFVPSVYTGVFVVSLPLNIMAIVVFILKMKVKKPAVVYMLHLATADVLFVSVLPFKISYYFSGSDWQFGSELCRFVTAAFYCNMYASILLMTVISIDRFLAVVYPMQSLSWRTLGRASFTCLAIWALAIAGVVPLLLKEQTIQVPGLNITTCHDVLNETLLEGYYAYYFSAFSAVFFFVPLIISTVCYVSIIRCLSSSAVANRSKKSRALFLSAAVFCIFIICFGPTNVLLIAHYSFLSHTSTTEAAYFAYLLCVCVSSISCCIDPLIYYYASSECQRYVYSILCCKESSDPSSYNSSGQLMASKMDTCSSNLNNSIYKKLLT

[2] = molecular target: T2, light-activated rhodopsin (bovine rod outer segment membranes) (bovine, UniProt P02699 1-348, retinylidene chromophore bound to Lys-296); test: not detailed in the sentence
T2 construct: whole, on cells; native receptor in membrane fragments immobilised on wells, not intact cells; also called metarhodopsin II; MII
T2 sequence (P02699 whole entry, the tested form may be a part): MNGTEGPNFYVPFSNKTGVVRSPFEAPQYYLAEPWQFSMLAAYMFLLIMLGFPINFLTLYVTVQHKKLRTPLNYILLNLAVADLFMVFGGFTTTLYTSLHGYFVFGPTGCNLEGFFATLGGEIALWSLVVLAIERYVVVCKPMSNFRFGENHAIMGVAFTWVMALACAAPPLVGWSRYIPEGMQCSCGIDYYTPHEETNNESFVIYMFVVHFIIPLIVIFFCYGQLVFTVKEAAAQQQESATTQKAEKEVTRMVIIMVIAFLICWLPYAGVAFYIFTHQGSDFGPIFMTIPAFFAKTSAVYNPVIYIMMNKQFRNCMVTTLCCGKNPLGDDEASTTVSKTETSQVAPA

[3] = molecular target: T2, light-activated rhodopsin (bovine rod …); test: LacI display panning, light-activated ROS membranes, peptide 8 added in rounds 3 and 4
Experimental: The panning process is illustrated in FIG. 1. For screening of the library by “panning,” rhodopsin receptors prepared according to Example 5 were immobilized directly on Immulon 4 (Dynatech) microtiter wells (0.1-1 μg of protein per well) in cold 35 mM HEPES, pH 7.5, containing 0.1 mM EDTA, 50 mM KCl and 1 mM dithiothreitol (HEK/DTT). After shaking for one hour at 4° C., unbound membrane fragments were washed away with HEK/DTT. The wells were blocked with 100 μl 2% BSA in HEKL (35 mM HEPES; 0.1 mM EDTA; 50 mM KCl; 0.2 M α-lactose; pH 7.5, with 1 mM DTT). For rounds 1 and 2, BSA was used for blocking; in later rounds 1% nonfat dry milk was used. For the first round of panning, about 24 wells of a 96-well plate were used. In subsequent rounds, 8 wells with receptor and 8 wells without receptor were prepared.
To identify peptides having even higher affinity to light-activated rhodopsin than those identified by the panning procedure described in Example 7, a high affinity peptide was included in the library incubations in rounds three and four. […] Screening of the Gαt library was performed as in Example 7, except that 10 μL 100 μM ([…]) peptide 8 was included in the wells in rounds three and four. […] Residues L344, C347 and G348 remained stable whether peptide 8 was included in the screen or not.

[4] = molecular target: T3, dark-adapted rhodopsin (bovine rod outer segment membranes) (bovine, UniProt P02699 1-348, retinylidene chromophore bound to Lys-296); test: LacI display panning, dark-adapted ROS membranes
T3 construct: whole, on cells; also called dark-adapted bovine rhodopsin
T3 sequence (P02699 whole entry): as the sequence (P02699 whole entry, the tested form may be a part) above

[5] = molecular target: T4, rhodopsin (activation state not stated) (bovine, UniProt P02699 1-348); test: ELISA of lysates, OD450 with receptor minus without receptor
T4 construct: whole, on cells; same protein as m1; also called EDTA-washed rhodopsin
T4 sequence (P02699 whole entry): as the sequence (P02699 whole entry, the tested form may be a part) above
Experimental: The methods of Example 7 repeated using rhodopsin screening with a Gt library. To identify the rank order of binding, the lysates were analyzed using ELISA methods in which the secondary antibody was conjugated to HRP. Following addition of the substrate, the microplate was read using a spectrophotometer. The binding is the OD₄₅₀ for wells with receptor—OD₄₅₀ for wells in which no receptor (control wells with empty lipid vesicles).

MGIKNNLKDCGLF [Gαi C-terminal minigene peptide (pcDNA-Gαi)]
decrease in thrombin-mediated HA-MAPK activity against pcDNA [1]: 59%

MGLQLNLKEYNAV [Gαq C-terminal minigene peptide (pcDNA-Gαq)]
decrease in thrombin-mediated HA-MAPK activity against pcDNA [1]: 57%

MGLQENLKDIMLQ [Gα12 C-terminal minigene peptide (pcDNA-Gα12)]
decrease in thrombin-mediated HA-MAPK activity against pcDNA [1]: 50%

MGLHDNLKQLMLQ [Gα13 C-terminal minigene peptide (pcDNA-Gα13)]
decrease in thrombin-mediated HA-MAPK activity against pcDNA [1]: 77%

MGNGIKCLFNDKL [GαiR control minigene peptide (Gαi1/2 carboxyl terminus in random order)]
thrombin mediated increase of HA-MAPK activity [1]: 4.46 fold

LLENLRDCGMF (also called HAP) [Peptide 8 (LLENLRDCGMF)]
fold binding against the native sequence [2]: 1000 fold

ILENLKDCGLL (peptide, not shown: small tags and cut ends, also: fused to LacI carrier via linker, letters not given here) [Clone No. 3 (Table XVIII) ILENLKDCGLL]
binding result [3]: binds

IREKWKDLALF (peptide, not shown: small tags and cut ends, also: fused to LacI carrier via linker, letters not given here) [Clone No. 2 (Table X) IREKWKDLALF]
binding result [4]: binds

VRDNLKNCFLF (peptide, not shown: small tags and cut ends, also: fused to LacI carrier via linker, letters not given here) [Clone No. 3 (Table X) VRDNLKNCFLF]
binding result [4]: binds

IGEQIEDCGPF (peptide, not shown: small tags and cut ends, also: fused to LacI carrier via linker, letters not given here) [Clone No. 7 (Table X) IGEQIEDCGPF]
binding result [4]: binds

IRNNLKRYGMF (peptide, not shown: small tags and cut ends, also: fused to LacI carrier via linker, letters not given here) [Clone No. 17 (Table X) IRNNLKRYGMF]
binding result [4]: binds

IRENLKDLGLV (peptide, not shown: small tags and cut ends, also: fused to LacI carrier via linker, letters not given here) [Clone No. 21 (Table X) IRENLKDLGLV]
binding result [4]: binds

IRENFKYLGLW (peptide, not shown: small tags and cut ends, also: fused to LacI carrier via linker, letters not given here) [Clone No. 26 (Table X) IRENFKYLGLW]
binding result [4]: binds

SLEILKDWGLF (peptide, not shown: small tags and cut ends, also: fused to LacI carrier via linker, letters not given here) [Clone No. 33/37 (Table X) SLEILKDWGLF]
binding result [4]: binds

IRGTLKGWGLF (peptide, not shown: small tags and cut ends, also: fused to LacI carrier via linker, letters not given here) [Clone No. 41 (Table X) IRGTLKGWGLF]
binding result [4]: binds

MLDNLKACGLF (peptide, not shown: small tags and cut ends, also: fused to lysate carrier and linker, not given here) [L4 MLDNLKACGLF]
ELISA [5]: 0.908 OD450

ILENLKDCGLF (peptide, not shown: small tags and cut ends, also: fused to fusion carrier of the lysate via linker, not given here) [L3 ILENLKDCGLF]
ELISA [5]: 0.839 OD450

B1: L6 ICENLKDCGLF (peptide, not shown: small tags and cut ends)
chain: ICENLKDCGLF
modifications: cysteine pairing not given here; also: fused to lysate carrier and linker, not given here
ELISA [5]: 0.342 OD450

ILQNLKDCGLF (peptide, not shown: small tags and cut ends, also: fused to fusion carrier of the lysate via linker, not given here) [L17 ILQNLKDCGLF]
ELISA [5]: 0.6 OD450

LRENLKDCGLL (peptide, not shown: small tags and cut ends, also: fused to fusion carrier of the lysate via linker, not given here) [L14 LRENLKDCGLL]
ELISA [5]: 0.833 OD450

LLDILKDCGLF (peptide, not shown: small tags and cut ends, also: fused to lysate carrier and linker, not given here) [L38 LLDILKDCGLF]
ELISA [5]: 0.823 OD450

VRDILKDCGLF (peptide, not shown: small tags and cut ends, also: fused to fusion carrier of the lysate via linker, not given here) [L15 VRDILKDCGLF]
ELISA [5]: 0.621 OD450

ILESLNECGLF (peptide, not shown: small tags and cut ends, also: fused to fusion carrier of the lysate via linker, not given here) [L34 ILESLNECGLF]
ELISA [5]: 0.603 OD450

IHDRLKDCGLF (peptide, not shown: small tags and cut ends, also: fused to fusion carrier of the lysate via linker, not given here, first of two rows labelled L10) [L10 IHDRLKDCGLF]
ELISA [5]: 0.506 OD450

IRGSLKDCGLF (peptide, not shown: small tags and cut ends, also: fused to LacI carrier via linker, letters not given here, also called L20) [Clone No. 13 (Table IX) IRGSLKDCGLF]
ELISA [5]: 0.423 OD450

IVKNLEDCGLF (peptide, not shown: small tags and cut ends, also: fused to lysate carrier and linker, not given here) [L8 IVKNLEDCGLF]
ELISA [5]: 0.257 OD450

ISKNLRDCGLL (peptide, not shown: small tags and cut ends, also: fused to fusion carrier of the lysate via linker, not given here) [L13 ISKNLRDCGLL]
ELISA [5]: 0.187 OD450
